US20220340666A1 (published 2022)

Columns and labels:
[1] = target: human Galectin-9 CRD1 (residues 1-148), biotinylated (UniProt O00182 1-148, biotinylated in vitro with BirA (Avitag)); experiment: bead-based binding assay; apparent Kd; plots and legend state CRD1
[2] = target: T1, human Galectin-9 CRD2 (residues 218-355), biotinylated (UniProt O00182 218-355, biotinylated in vitro with BirA (Avitag)); experiment: SPR
[3] = target: T1, human Galectin-9 CRD2 (residues …); experiment: SPR; remark: listed apart in the source
[4] = target: T1, human Galectin-9 CRD2 (residues …); experiment: bead-based binding assay; apparent Kd

human Galectin-9 CRD1 (residues 1-148), biotinylated, sequence (O00182 1-148): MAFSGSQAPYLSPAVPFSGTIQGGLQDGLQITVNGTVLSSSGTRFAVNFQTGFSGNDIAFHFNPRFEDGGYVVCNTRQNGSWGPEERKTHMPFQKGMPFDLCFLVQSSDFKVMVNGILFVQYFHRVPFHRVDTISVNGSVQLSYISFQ
T1 sequence (O00182 218-355): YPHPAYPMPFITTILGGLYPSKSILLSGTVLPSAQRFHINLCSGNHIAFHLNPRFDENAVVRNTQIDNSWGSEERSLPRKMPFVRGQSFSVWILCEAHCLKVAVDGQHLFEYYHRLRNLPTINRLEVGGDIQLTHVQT

Binder | Kd [1] [nM] | Kd [4] [nM] | also measured
G9.1-5 Fab (Fab, V domains shown) VH: EVQLVESGGGLVQPGGSLRLSCAASGFTIYYSSIHWVRQAPGKGLEWVASISSSYGSTYYADSVKGRFTISADTSKNTAYLQMNSLRAEDTAVYYCARSVSWYPYYYYYGYGSGLDYWGQGTLVTVSS VL: DIQMTQSPSSLSASVGDRVTITCRASQSVSSAVAWYQQKPGKAPKLLIYSASSLYSGVPSRFSGSRSGTDFTLTISSLQPEDFATYYCQQYYGWFYPVTFGQGTKVEIKR | 30.4 |  | 
G9.1-8 Fab (Fab, V domains shown) VH: EVQLVESGGGLVQPGGSLRLSCAASGFTVSSSSIHWVRQAPGKGLEWVAYIYPYSGYTSYADSVKGRFTISADTSKNTAYLQMNSLRAEDTAVYYCARYSTYSWGGIGKWVWGMDYWGQGTLVTVSS VL: DIQMTQSPSSLSASVGDRVTITCRASQSVSSAVAWYQQKPGKAPKLLIYSASSLYSGVPSRFSGSRSGTDFTLTISSLQPEDFATYYCQQSYYDSNPITFGQGTKVEIKR | 9.8 |  | 
G9.1-6 Fab (Fab, V domains shown) VH: EVQLVESGGGLVQPGGSLRLSCAASGFTLSSSSIHWVRQAPGKGLEWVASIYSSYGSTSYADSVKGRFTISADTSKNTAYLQMNSLRAEDTAVYYCARSSHWYMYWSYWGWYIGMDYWGQGTLVTVSS VL: DIQMTQSPSSLSASVGDRVTITCRASQSVSSAVAWYQQKPGKAPKLLIYSASSLYSGVPSRFSGSRSGTDFTLTISSLQPEDFATYYCQQYHSSLFTFGQGTKVEIKR | 29.2 |  | 
G9.2-3 Fab (Fab, V domains shown) VH: EVQLVESGGGLVQPGGSLRLSCAASGFTFSSSSIHWVRQAPGKGLEWVASISSSSGSTSYADSVKGRFTISADTSKNTAYLQMNSLRAEDTAVYYCARPAYSYPYYYFHYGAMDYWGQGTLVTVSS VL: DIQMTQSPSSLSASVGDRVTITCRASQSVSSAVAWYQQKPGKAPKLLIYSASSLYSGVPSRFSGSRSGTDFTLTISSLQPEDFATYYCQQSSSSLITFGQGTKVEIKR |  | 1380 | 
G9.1-11 Fab (Fab, V domains shown) VH: EVQLVESGGGLVQPGGSLRLSCAASGFTVYSSSIHWVRQAPGKGLEWVASIYSYYGYTSYADSVKGRFTISADTSKNTAYLQMNSLRAEDTAVYYCARSTEGYDRWGYYSSYWSSGLDYWGQGTLVTVSS VL: DIQMTQSPSSLSASVGDRVTITCRASQSVSSAVAWYQQKPGKAPKLLIYSASSLYSGVPSRFSGSRSGTDFTLTISSLQPEDFATYYCQQTYWGLITFGQGTKVEIKR | 20.4 |  | 
G9.2-17mut6 Fab (Fab, V domains shown) VH: EVQLVESGGGLVQPGGSLRLSCAASGFTVSSSSIHWVRQAPGKGLEWVAYISSSSGYTYYADSVKGRFTISADTSKNTAYLQMNSLRAEDTAVYYCARYWSYPSWSPYRGMDYWGQGTLVTVSS VL: DIQMTQSPSSLSASVGDRVTITCRASQSVSSAVAWYQQKPGKAPKLLIYSASSLYSGVPSRFSGSRSGTDFTLTISSLQPEDFATYYCQQSSTDPITFGQGTKVEIKR |  |  | Kd [2]: 0.154 nM
G9.2-1 Fab (Fab, V domains shown) VH: EVQLVESGGGLVQPGGSLRLSCAASGFTLYSSSIHWVRQAPGKGLEWVASIYSSSGYTYYADSVKGRFTISADTSKNTAYLQMNSLRAEDTAVYYCARTYTWKSSWSYQTGYGLDYWGQGTLVTVSS VL: DIQMTQSPSSLSASVGDRVTITCRASQSVSSAVAWYQQKPGKAPKLLIYSASSLYSGVPSRFSGSRSGTDFTLTISSLQPEDFATYYCQQYKSKYPFTFGQGTKVEIKR |  | 4170 | 

More lines, main results first:

Kd [1] [nM] | Kd [4] [nM] | Binder | also measured
 | 0.76 | G9.2-17 Fab (Fab, V domains shown) VH: EVQLVESGGGLVQPGGSLRLSCAASGFTVSSSSIHWVRQAPGKGLEWVAYISSSSGYTYYADSVKGRFTISADTSKNTAYLQMNSLRAEDTAVYYCARYWSYPSWWPYRGMDYWGQGTLVTVSS VL: DIQMTQSPSSLSASVGDRVTITCRASQSVSSAVAWYQQKPGKAPKLLIYSASSLYSGVPSRFSGSRSGTDFTLTISSLQPEDFATYYCQQSSTDPITFGQGTKVEIKR | Kd [2]: 0.219 nM; Kd [3]: 0.232 nM
 | 0.71 | G9.2-15 Fab (Fab, V domains shown) VH: EVQLVESGGGLVQPGGSLRLSCAASGFTVSSSSIHWVRQAPGKGLEWVASIYSSSGYTSYADSVKGRFTISADTSKNTAYLQMNSLRAEDTAVYYCARNVENYPYWAWPWGYYGAIDYWGQGTLVTVSS VL: DIQMTQSPSSLSASVGDRVTITCRASQSVSSAVAWYQQKPGKAPKLLIYSASSLYSGVPSRFSGSRSGTDFTLTISSLQPEDFATYYCQQSSWGLITFGQGTKVEIKR | Kd [3]: 4.8 nM
